Tests used:
[1] = molecular target: CD38 antigen on the cell surface (Daudi cells; NCI-H929 cells) (human) (UniProt P28907); experiment: cell-based or functional assay
[2] = molecular target: CD38 (human), analyte in Biacore (human) (UniProt P28907); experiment: SPR (Biacore 8K), antibody captured on Protein A chip, CD38 as analyte, 25℃

ADCC reporter (Jurkat-Lucia-NFAT-CD16 + NCI-H929), EC50(μg/mL) [1] [µg/mL] | ADCC reporter (Jurkat-Lucia-NFAT-CD16 + NCI-H929), Top MFI [1] | Kd [2] [nM] | Substance
0.375 | 2120 | – | Isotype control (antibody)
0.017 | 57200 | 88.6 | RB0021 PC(Daratumumab) (antibody)
